Kd, koff and kon data for 16 molecules are collected here from patent publication US20260191981A1 (ARROWHEAD PHARMACEUTICALS, published 2026).

Substitutions are numbered along the chain they refer to.

To fix the notation:
B1: Fab0061-siRNA conjugate (Fab, V domains shown)
VH: EVQLVESGGGLVQPGGSLRLSCATSGYTFTSYWMHWVRQAPGKGLEWVAEINPTNGRVNYIEKFKSRITLSVDKSKSTVYLQMNSLRAEDTAVYYCARGTRAYHYWGQGTLVTVSS
VL: DIQLTQSPSSLSASVGDRVTITCRASDGLYSNLAWYQQKPGKAPKLLIYDATKLASGVPSRFSGSGSGTDYTLTISSLQPEDFATYYCQHFWGTPLTFGQGTKVEIKR
modifications: siRNA-linker on a reduced cysteine; chain and residue not stated
notes: also called Fab0061 (BLI conjugate columns)
B2: Fab0002-siRNA conjugate (Fab, V domains shown)
VH: EVQLVQSGAEVKKPGASVKVSCKASGYTFTSYWMHWVRQAPGQRLEWIGEINPTNGRTNYIEKFKSRATLTVDKSASTAYMELSSLRSEDTAVYYCARGTRAYHYWGQGTMVTVSS
VL: B1 VL with L4M, G28N, A43S, I48V, K53N, S56D
modifications: siRNA-linker on a reduced cysteine; chain and residue not stated
notes: also called Fab0002 (BLI conjugate columns)
B3: Fab0063-siRNA conjugate (Fab, V domains shown)
VH: B1 VH
VL: B1 VL with K53R
modifications: siRNA-linker on a reduced cysteine; chain and residue not stated
notes: also called Fab0063 (BLI conjugate columns)
B4: Fab0066-siRNA conjugate (Fab, V domains shown)
VH: B1 VH with M34V
VL: B1 VL with T52F, K53N
modifications: siRNA-linker on a reduced cysteine; chain and residue not stated
notes: also called Fab0066 (BLI conjugate columns)
B5: Fab0071-siRNA conjugate (Fab, V domains shown)
VH: B1 VH with T30N, V58T
VL: B1 VL with T52R, K53N
modifications: siRNA-linker on a reduced cysteine; chain and residue not stated
notes: also called Fab0071 (BLI conjugate columns)
B6: Fab0070-siRNA conjugate (Fab, V domains shown)
VH: B1 VH with Y27F, V58T
VL: B1 VL with G28K, K53L
modifications: siRNA-linker on a reduced cysteine; chain and residue not stated
notes: also called Fab0070 (BLI conjugate columns)
B7: Fab0068-siRNA conjugate (Fab, V domains shown)
VH: B1 VH with M34V
VL: B1 VL
modifications: siRNA-linker on a reduced cysteine; chain and residue not stated
notes: also called Fab0068 (BLI conjugate columns)
B8: Fab0065-siRNA conjugate (Fab, V domains shown)
VH: B1 VH with M34V, V58S
VL: B1 VL with G28N, S31R
modifications: siRNA-linker on a reduced cysteine; chain and residue not stated
notes: also called Fab0065 (BLI conjugate columns)
B9: Fab0064-siRNA conjugate (Fab, V domains shown)
VH: B1 VH
VL: B1 VL with T52K, K53N
modifications: siRNA-linker on a reduced cysteine; chain and residue not stated
notes: also called Fab0064 (BLI conjugate columns)
B10: Fab0072-siRNA conjugate (Fab, V domains shown)
VH: B1 VH with T30N, V58F
VL: B1 VL with G28N, S31R, T52R, K53N
modifications: siRNA-linker on a reduced cysteine; chain and residue not stated
notes: also called Fab0072 (BLI conjugate columns)
B11: Fab0069-siRNA conjugate (Fab, V domains shown)
VH: B1 VH with M34V, V58S
VL: B1 VL
modifications: siRNA-linker on a reduced cysteine; chain and residue not stated
notes: also called Fab0069 (BLI conjugate columns)
B12: Fab0060-siRNA conjugate (Fab, V domains shown)
VH: B1 VH with M34V, V58T
VL: B1 VL
modifications: siRNA-linker on a reduced cysteine; chain and residue not stated
notes: also called Fab0060 (BLI conjugate columns)
B13: Fab0073-siRNA conjugate (Fab, V domains shown)
VH: B1 VH with T30K, V58T
VL: B1 VL with G28N, S31R
modifications: siRNA-linker on a reduced cysteine; chain and residue not stated
notes: also called Fab0073 (BLI conjugate columns)
B14: Fab0062-siRNA conjugate (Fab, V domains shown)
VH: B1 VH
VL: B1 VL with T52F, K53N
modifications: siRNA-linker on a reduced cysteine; chain and residue not stated
notes: also called Fab0062 (BLI conjugate columns)
B15: Fab0074-siRNA conjugate (Fab, V domains shown)
VH: B1 VH with T30K, V58T
VL: B1 VL with T52K, K53N
modifications: siRNA-linker on a reduced cysteine; chain and residue not stated
notes: also called Fab0074 (BLI conjugate columns)
B16: Fab0067-siRNA conjugate (Fab, V domains shown)
VH: B1 VH with M34V, V58T
VL: B1 VL with G28N, S31R
modifications: siRNA-linker on a reduced cysteine; chain and residue not stated
notes: also called Fab0067 (BLI conjugate columns)

T1 sequence (chain, as listed by the source): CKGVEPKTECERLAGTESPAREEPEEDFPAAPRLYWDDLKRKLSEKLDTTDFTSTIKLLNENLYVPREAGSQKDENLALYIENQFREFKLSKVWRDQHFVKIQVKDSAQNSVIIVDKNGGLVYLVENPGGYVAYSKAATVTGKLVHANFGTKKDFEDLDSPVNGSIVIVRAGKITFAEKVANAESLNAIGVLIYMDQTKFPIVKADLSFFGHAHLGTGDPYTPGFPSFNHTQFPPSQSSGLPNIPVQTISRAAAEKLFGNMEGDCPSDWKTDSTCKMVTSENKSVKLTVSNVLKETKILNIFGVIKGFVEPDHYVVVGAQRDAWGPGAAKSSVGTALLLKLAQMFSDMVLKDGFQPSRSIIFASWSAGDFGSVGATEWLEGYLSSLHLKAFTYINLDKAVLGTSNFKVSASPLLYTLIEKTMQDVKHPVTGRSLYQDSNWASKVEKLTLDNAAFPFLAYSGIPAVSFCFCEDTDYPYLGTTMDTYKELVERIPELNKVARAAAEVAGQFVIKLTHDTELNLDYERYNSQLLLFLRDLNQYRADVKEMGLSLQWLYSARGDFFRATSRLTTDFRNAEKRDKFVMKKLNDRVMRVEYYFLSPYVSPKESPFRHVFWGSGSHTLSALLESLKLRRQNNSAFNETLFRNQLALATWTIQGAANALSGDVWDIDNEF

The first experiment has as its target T1, biotinylated cTfR1 (Acro Bio p/n TFR-C8249) (cynomolgus monkey, UniProt H9EXL1 89-760 (rhesus entry), biotinylated; site not stated).
T1 construct: Bought reagent of the BLI assay
As to the kind of experiment: BLI, Octet RH16, biotinylated TfR1 on streptavidin sensor; Fab-siRNA conjugate. Here is the method: Samples were analyzed via Bio-Layer Interferometry (BLI) to determine kinetics against cynomolgus monkey transferrin receptor 1 (cTfR1). Briefly, an Octet RH16 (Sartorius) was used for BLI measurements using streptavidin biosensors (Sartorius p/n 18-5019) to irreversibly immobilize biotinylated cTfR1 (Acro Bio p/n TFR-C8249). […] Sample diluent was prepared in house and is composed of 10 mM PBS pH 7.4 (150 mM NaCl), 0.01% BSA, 0.002% Tween 20, and 0.01% kathon. A 96-well plate was used for analysis, filled with required samples solutions and a row of 10 μg/mL cTfR1 for loading of the streptavidin sensors. For each sample, one well was reserved for a reference sensor control (non-specific binding evaluation with no cTfR1 on surface in highest sample concentration) and a sample reference (buffer only on a cTfR1 loaded sample). One well was also reserved for a second replicate of one of the five concentrations to evaluate sensor and method variability. Eight channels were used for the highest sensitivity offered by the Octet RH16. For each assay performed, the steps were as follows: a sensor check for baseline evaluation of sensor alone in buffer was performed for 30 seconds, followed by loading of the cTfR1 for 60 seconds, then a baseline check for 90 seconds to verify stability of cTfR1 immobilized to sensor surface, then sample association for 180 seconds, and finally sample dissociation for 300 seconds. A shake speed of 1000 was used for all steps. Sample results were analyzed in Octet Analysis software.
The molecule B1 showed a Kd of 6.85 nM, a koff of 0.0017 s⁻¹ and a kon of 248000 M⁻¹ s⁻¹.

As for B2, the Kd came to 25.1 nM, the off-rate constant (koff) came out at 0.00732 s⁻¹ and the on-rate constant (kon) was found to be 292000 M⁻¹ s⁻¹.

Consider B3, for which binding was characterised by a dissociation constant (Kd) of 8.37 nM, the koff was found to be 0.0022 s⁻¹ and the kon was 263000 M⁻¹ s⁻¹.

Molecule B4 displayed an equilibrium dissociation constant (Kd) of 10 nM, a koff of 0.00335 s⁻¹ and a kon of 334000 M⁻¹ s⁻¹.

For the molecule B5, binding was put at a Kd of 18.1 nM, the koff was determined as 0.00429 s⁻¹ and the on-rate constant (kon) stood at 234000 M⁻¹ s⁻¹.

B6: binding was put at a Kd of 16.9 nM, the dissociation rate constant (koff) stood at 0.00413 s⁻¹ and the association rate constant (kon) was found to be 244000 M⁻¹ s⁻¹.

Consider B7, for which binding was characterised by a dissociation constant (Kd) of 8.89 nM, the off-rate (koff) is 0.00221 s⁻¹ and the on-rate (kon) was found to be 249000 M⁻¹ s⁻¹.

Consider B8, for which the dissociation constant (Kd) amounted to 5.63 nM, the koff was 0.0013 s⁻¹ and the kon came to 231000 M⁻¹ s⁻¹.

As to B9, the dissociation constant (Kd) was 5.96 nM, the koff came out at 0.0019 s⁻¹ and the on-rate (kon) is 319000 M⁻¹ s⁻¹.

In the case of B10, the Kd worked out at 10.8 nM, the off-rate (koff) was 0.00398 s⁻¹ and the on-rate (kon) came out at 368000 M⁻¹ s⁻¹.

Consider B11, for which the affinity, expressed as Kd, was 9.58 nM; the off-rate constant (koff) was 0.00245 s⁻¹; the association rate constant (kon) worked out at 256000 M⁻¹ s⁻¹.

B12 showed an equilibrium dissociation constant (Kd) of 9.11 nM, an off-rate constant (koff) of 0.00252 s⁻¹ and an on-rate constant (kon) of 276000 M⁻¹ s⁻¹.

In turn, B13 gave a Kd of 9.23 nM, a koff of 0.00321 s⁻¹ and an on-rate constant (kon) of 348000 M⁻¹ s⁻¹.

B14 registered a Kd of 11 nM, a dissociation rate constant (koff) of 0.00263 s⁻¹ and a kon of 238000 M⁻¹ s⁻¹.

Take B15: the affinity, expressed as Kd, was 12.2 nM; the koff came to 0.00321 s⁻¹; the association rate constant (kon) was found to be 264000 M⁻¹ s⁻¹.

In turn, B16 yielded a Kd of 5.02 nM, a koff of 0.0019 s⁻¹ and a kon of 378000 M⁻¹ s⁻¹.

A further experiment deals with T2, biotinylated hTfR1 (Acro Bio p/n TFR-H82E5) (human, UniProt P02786 89-760, biotinylated; site not stated).
T2 construct: Bought reagent of the BLI assay
T2 sequence (P02786 89-760 limits assumed): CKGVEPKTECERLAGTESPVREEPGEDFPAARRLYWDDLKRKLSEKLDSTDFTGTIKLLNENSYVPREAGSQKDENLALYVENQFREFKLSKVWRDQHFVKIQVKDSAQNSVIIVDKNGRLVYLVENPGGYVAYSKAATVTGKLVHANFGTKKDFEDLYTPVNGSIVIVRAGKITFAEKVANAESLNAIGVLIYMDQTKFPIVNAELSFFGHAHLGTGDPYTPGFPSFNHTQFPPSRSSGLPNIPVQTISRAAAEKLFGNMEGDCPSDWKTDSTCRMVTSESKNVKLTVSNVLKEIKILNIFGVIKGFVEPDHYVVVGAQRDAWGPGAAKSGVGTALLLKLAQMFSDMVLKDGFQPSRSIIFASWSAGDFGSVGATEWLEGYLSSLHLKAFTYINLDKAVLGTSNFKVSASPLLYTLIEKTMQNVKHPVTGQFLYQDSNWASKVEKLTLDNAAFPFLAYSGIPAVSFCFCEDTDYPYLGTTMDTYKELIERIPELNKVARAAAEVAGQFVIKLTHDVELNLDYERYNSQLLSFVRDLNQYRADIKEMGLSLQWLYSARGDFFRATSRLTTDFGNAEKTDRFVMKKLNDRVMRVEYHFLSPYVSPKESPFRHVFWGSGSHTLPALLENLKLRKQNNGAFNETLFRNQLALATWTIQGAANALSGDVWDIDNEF
The description is as above. Here is the method: Samples were analyzed via Bio-Layer Interferometry (BLI) to determine kinetics against human transferrin receptor 1 (hTfR1). Briefly, an Octet RH16 (Sartorius) was used for BLI measurements using streptavidin biosensors (Sartorius p/n 18-5019) to irreversibly immobilize biotinylated hTfR1 (Acro Bio p/n TFR-H82E5). […] Sample diluent was prepared in house and is composed of 10 mM PBS pH 7.4 (150 mM NaCl), 0.01% BSA, 0.002% Tween 20, and 0.01% kathon. A 96-well plate was used for analysis, filled with required samples solutions and a row of 10 μg/mL hTfR1 for loading of the streptavidin sensors. For each sample, one well was reserved for a reference sensor control (non-specific binding evaluation with no hTfR1 on surface in highest sample concentration) and a sample reference (buffer only on a hTfR1 loaded sample). One well was also reserved for a second replicate of one of the five concentrations to evaluate sensor and method variability. Eight channels were used for the highest sensitivity offered by the Octet RH16. For each assay performed, the steps were as follows: a sensor check for baseline evaluation of sensor alone in buffer was performed for 30 seconds, followed by loading of the cTfR1 for 60 seconds, then a baseline check for 90 seconds to verify stability of cTfR1 immobilized to sensor surface, then sample association for 180 seconds, and finally sample dissociation for 300 seconds. A shake speed of 1000 was used for all steps. Sample results are analyzed in Octet Analysis software.
In the case of B1, binding was put at a Kd of 1.9 nM, the off-rate constant (koff) is 0.000527 s⁻¹ and the kon was determined as 278000 M⁻¹ s⁻¹.

Take B2: the Kd stood at 16.7 nM, the koff was determined as 0.00349 s⁻¹ and the kon is 209000 M⁻¹ s⁻¹.

For B3, binding was characterised by a dissociation constant (Kd) of 2.72 nM, the koff was 0.000775 s⁻¹ and the kon was 285000 M⁻¹ s⁻¹.

In turn, B4 registered a dissociation constant Kd of 1.81 nM, an off-rate (koff) of 0.000469 s⁻¹ and a kon of 259000 M⁻¹ s⁻¹.

Molecule B5 had a Kd of 2.67 nM, a koff of 0.000716 s⁻¹ and a kon of 268000 M⁻¹ s⁻¹.

The molecule B6 showed a Kd of 3.71 nM, a koff of 0.000974 s⁻¹ and a kon of 263000 M⁻¹ s⁻¹.

B7 came in with a dissociation constant Kd of 1.69 nM, a koff of 0.000432 s⁻¹ and an on-rate (kon) of 256000 M⁻¹ s⁻¹.

As to B8, the Kd came out at 2.64 nM, the dissociation rate constant (koff) was determined as 0.00082 s⁻¹ and the association rate constant (kon) worked out at 310000 M⁻¹ s⁻¹.

Take B9: binding was characterised by a dissociation constant (Kd) of 1.44 nM, the koff turned out to be 0.000393 s⁻¹ and the kon was 273000 M⁻¹ s⁻¹.

B10 registered a Kd of 0.898 nM, a koff of 0.000262 s⁻¹ and an on-rate constant (kon) of 292000 M⁻¹ s⁻¹.

With B11, the dissociation constant (Kd) is 5.45 nM, the koff came out at 0.00164 s⁻¹ and the kon came out at 301000 M⁻¹ s⁻¹.

B12 had a Kd of 3.65 nM, an off-rate (koff) of 0.00109 s⁻¹ and a kon of 298000 M⁻¹ s⁻¹.

B13 registered a Kd of 2.1 nM, an off-rate constant (koff) of 0.000615 s⁻¹ and an on-rate constant (kon) of 292000 M⁻¹ s⁻¹.

Turning to B14, the affinity, expressed as Kd, was 4.47 nM; the off-rate constant (koff) came to 0.00123 s⁻¹; the kon was 275000 M⁻¹ s⁻¹.

B15 yielded a Kd of 2.78 nM, a koff of 0.000793 s⁻¹ and an on-rate constant (kon) of 286000 M⁻¹ s⁻¹.

On to B16, for which the equilibrium dissociation constant (Kd) was 0.623 nM, the off-rate (koff) came out at 0.000167 s⁻¹ and the kon was determined as 268000 M⁻¹ s⁻¹.
